Laboratory results as given in patent publication US20220227815A1, “COMPOSITIONS AND METHODS USEFUL IN TREATING BRAIN DISEASES” (University of Kansas, priority 2019, published 2022).

What was measured:
[1] = tested on: myelin in the lateral corpus callosum; experiment: Remyelination in EAE mouse brain, Luxol fast blue staining; format: in vivo, SJL/elite mice; conditions: EAE mice; BDNF 5.71 nmol/kg ± ADTC5 10 μmol/kg; n=5; compared to BDNF alone or vehicle
Source text: Euthanasia, Brain Perfusion, and Extraction: All mice were euthanized via a CO2 chamber. Immediately following euthanasia, mice underwent cervical dislocation and were transcardially perfused with PBS+0.2% Tween-20 followed by perfusion-fixation with a 4% paraformaldehyde and 30% sucrose PBS solution. Following the fixation, the brains were extracted and post-fixed overnight in the perfusion-fixation solution.
Fixed brain samples were submitted to IHC World (Ellicott City, Md.) for paraffin embedding, tissue sectioning (5 μm), anti-NG2 (Abcam, Cambridge, UK) staining via DAB, and Luxol-fast blue staining. Staining protocols described on the IHC World website for Luxol-fast blue and immunohistochemistry enzyme HRP were performed. […]
Luxol-fast blue and anti-NG2 mAb images were taken under identical conditions on a Zeiss Axioplan 2 microscope (Oberkochen, Germany) equipped with a mercury lamp excitation source, and 40× (Luxol) and 20× (anti-NG2) air objective lenses. Greyscale images for quantification were taken using a 1344×1024 Orca ER CCD camera (Hamamatsu Photonics, Japan), color images for qualitative purposes were taken using a 1.3 MP Spot Color camera (Spot Imaging, Sterling Heights, Mich.). […] The mean value of each ROI from each image was recorded. […] The integrated mean grey value for each ROI from each image was recorded. […]

[2] = tested on: EGR1, ARC, and MAPK1 mRNA transcripts; experiment: Fluorescence in situ hybridization of mRNA transcripts in APP/PS1 hippocampus CA1; format: in vivo, transgenic APP/PS1 mice; conditions: CA1 region of hippocampus; all three groups compared
Experimental: Coronal brain sections (10 μm thickness) were washed three times in PBS before mounting on gelatin-coated glass slides (Superfrost Plus, Thermo Fisher Scientific). Tissues were allowed to dry at RT and were then stored at −20° C. until use. Fluorescence in situ hybridization (FISH) was performed using Multiplex Reagent Kit V2 from RNAscope® Technology 2.0 (Advanced Cell Diagnostics (ACD), Hayward, Calif.). See Vasquez, J. J., Hussien, R., Aguilar-Rodriguez, B., Junger, H., Dobi, D., Henrich, T. J., Thanh, C., Gibson, E., Hogan, L. E., McCune, J., Hunt, P. W., Stoddart, C. A.,Laszik, Z. G., Elucidating the Burden of HIV in Tissues Using Multiplexed Immunofluorescence and In Situ Hybridization: Methods for the Single-Cell Phenotypic Characterization of Cells Harboring HIV In Situ. J Histochem Cytochem 2018; 66:427-46; Gershon, T. R., Crowther, A. J., Liu, H., Miller, C. R.,Deshmukh, M., Cerebellar granule neuron progenitors are the source of Hk2 in the postnatal cerebellum. Cancer Metab 2013; 1:15; and Smith, P. A., Schmid, C., Zurbruegg, S., Jivkov, M., Doelemeyer, A., Theil, D., Dubost, V., Beckmann, N., Fingolimod inhibits brain atrophy and promotes brain-derived neurotrophic factor in an animal model of multiple sclerosis. J Neuroimmunol 2018; 318:103-13. Mounted tissue sections were deparaffinized using xylene and serially dehydrated in 50%, 70%, 95%, and 100% ethanol for 5 min each. […]

B1: BDNF: recombinant brain-derived neurotrophic factor (13 kDa monomer), Peprotech (protein, UniProt P23560 19-247, looked up)
Neurotrophic factor BDNF …: APMKEANIRGQGGLAYPGVRTHGTLESVNGPKAGSRGLTSLADTFEHVIEELLDEDQKVRPNEENNKDADLYTSRVMLSSQVPLEPPLLFLLEEYKNYLDAANMSMRVRRHSDPARRGELSVCDSISEWVTAADKKTAVDMSGGTVTVLEKVPVSKGQLKQYFYETKCNPMGYTKEGCRGIDKRHWNSQCRTTQSYVRALTMDSKKRIGWRFIRIDTSCVCTLTIKRGR
myelin density in the lateral corpus callosum [1]: myelin discontinuity | MAPK1 expression [2]: no significant differences
